Measurements: the supplement of paper PMC10567573
± gives the standard deviation.

Assay: protein stability index of a GFP-peptide fusion (GPS, HEK-293T) (PSI 1-6); higher = more stable
[1] = treatment: DMSO, c terminus: a fixed tail appended
[2] = treatment: MLN4924 1 uM, 8 h, c terminus: a fixed tail appended
[3] = treatment: DMSO, c terminus: native
[4] = treatment: MLN4924 1 uM, 8 h, c terminus: native
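Further: 24-mer peptide tiles fused after GFP, lentivirally expressed, FACS-sorted into six equal bins by GFP/DsRed ratio, decoded by Illumina sequencing, PSI is the read-weighted mean bin number.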

Sequence | protein stability index [1] | protein stability index [2] | protein stability index [3] | protein stability index [4]
KDPKAGDSKSGGSGSESDHTTRSS [DVL3] | 5.3 ± 0.38 | 5.53 ± 0.23 | – | –
KDVAIDMMDSRTSQQLQLIDEQDS [STX5] | 5.4 ± 0.21 | 5.33 ± 0.4 | – | –
KEGARNIRTSERVTLIVDNTRFVV [BTBD10] | 1.95 ± 0.32 | 2.29 ± 0.34 | – | –
KEPVIIECGHNFCKACITRWWEDL [TRIM39] | 2.53 ± 0.5 | 2.62 ± 0.36 | – | –
KGERRREPGGYDSSSTLMSSELET [DVL3] | 5.19 ± 0.19 | 5.15 ± 0.13 | – | –
KGGAVAADGRIEPGDMLLQVNEIN [DVL3] | 4.49 ± 0.19 | 4.59 ± 0.14 | – | –
KGKQPTSAENSVAKKEDKVPVKKQ [NANOGP8] | 5.37 ± 0.32 | 5.44 ± 0.14 | – | –
KHFCPRTPVILVGCQLDLRYADLE [RHOBTB1] | 2.35 ± 0.49 | 2.19 ± 0.33 | – | –
KHTVKEHECKLTQEILELIDREVD [IQUB] | 4.06 ± 0.23 | 4.24 ± 0.22 | – | –
KILVGNRLHLAFKRQVPREQAQAY [RAB40A] | 2.48 ± 0.11 | 2.56 ± 0.19 | – | –
KIREKEEWIKLDYHRRHNPKTNED [IQUB] | 4.23 ± 0.28 | 4.74 ± 0.13 | – | –
KIRKPRTIYCSLQLQALNRRFQQT [DLX1] | 2.45 ± 0.78 | 1.95 ± 0.51 | – | –
KISVPRDVMLEELSLLTNRGSKMF [MYOZ1] | 2.8 ± 0.28 | 2.76 ± 0.35 | – | –
KKFYEAFSKNLKLGIHEDSTNRRR [HSP90AB1] | 3.39 ± 0.33 | 3.59 ± 0.51 | – | –
KKIQVNSKPSIQPKPLLLPAAPKT [ATF6] | 4.18 ± 0.17 | 4.221 ± 0.027 | – | –
KLEYEEIALDLTPVIEELTNAGFL [FAN1] | 2.14 ± 0.23 | 2.38 ± 0.24 | – | –
KLGWGHFSTVWLCWDMQGKRFVAM [SRPK2] | 2.9 ± 0.87 | 2.64 ± 1.2 | – | –
KLKNDTENHQPVSLSDLEIQASAG [ZNF75A] | 5.21 ± 0.32 | 5.15 ± 0.14 | – | –
KLPLQIDCLAAWEEWLLVGTKQGH [VPS39] | 2.43 ± 0.41 | 2.47 ± 0.14 | – | –
KLQGLENWGQDPGVSANASKAWHQ [PBXIP1] | 3.27 ± 0.27 | 3.37 ± 0.28 | – | –
KLVADFQRYILYWRKRFTEQPITD [ZNF277] | 1.99 ± 0.24 | 2.19 ± 0.44 | – | –
KMKTRELHRESSNFDSIYICPSTF [HDAC6] | 2.26 ± 0.36 | 2.71 ± 0.39 | – | –

Sequence | protein stability index [1] | protein stability index [2] | protein stability index [3] | protein stability index [4]
KPKMNYEKLSRGLRYYYDKNIIHK [ETS2] | 2.48 ± 0.19 | 2.52 ± 0.38 | – | –
KRGSIPTSLTALSLASASPPLSGR [PPFIA4] | 3.99 ± 0.2 | 4.17 ± 0.28 | – | –
KSEEGHPFKAYLDVDITLSSEAFH [RTN3] | 2.87 ± 0.45 | 2.67 ± 0.41 | – | –
KSELSDGIAILVGSNDRVQGVISQ [TRIM55] | 3.46 ± 0.31 | 3.52 ± 0.34 | – | –
KSLSELVDDKFGTGTKKVTRILDG [PSD2] | 4.44 ± 0.18 | 4.53 ± 0.23 | – | –
KTIKSFFPHSGKDCLLCFPETLPE [C8orf76] | 2.92 ± 0.26 | 3.03 ± 0.32 | – | –
KTPVLLTDYPVDLDEIAYFTWAS [MYORG] | – | – | 2.25 ± 0.15 | 2.18 ± 0.3
KVPVITSSKEEQKLIATSNKPAVK [KCTD10] | 4.92 ± 0.27 | 5.29 ± 0.23 | – | –
KWTRVASMSTRRLGVAVAVLGGFL [KLHL20] | 2.18 ± 0.11 | 2.08 ± 0.13 | – | –
LAELQEQLKAVHEQLAALSQAPVN [BRD3] | 4.2 ± 0.3 | 4.24 ± 0.43 | – | –
LAEYCIKTKVPSNDNSSDLLYDDL [UBE2R2] | 4.13 ± 0.17 | 4.19 ± 0.32 | – | –
LAGMANHGSPQLGEGMFQHQTSVA [TBX5] | 3.83 ± 0.2 | 3.83 ± 0.13 | – | –
LAIQEMVSLTSPSAPPTSRTSSGN [PPFIA4] | 3.88 ± 0.19 | 4.05 ± 0.17 | – | –
LALIDYLTQKRSQLVKKLNDSDHQ [VPS39] | 2.51 ± 0.14 | 2.77 ± 0.69 | – | –
LAQEAEAWLNYPCFKNWDGSPVSS [OAS1] | 3.04 ± 0.28 | 3.11 ± 0.35 | – | –
LASGPGKYMPHLCQDSSGEVSCQC | 3.99 ± 0.12 | 4.1 ± 0.27 | – | –
LASHHNHFSQIVIFMLCTLVLAIP [OR10K2] | 3.06 ± 0.22 | 3.13 ± 0.18 | – | –
LCALPVHVAVEHQLPPASRCVLVF [SOAT2] | 2.71 ± 0.6 | 2.71 ± 0.61 | – | –
LDAEDRPAWNSKLQYILAQIGFSV [SLC6A17] | 2.19 ± 0.53 | 2.32 ± 0.21 | – | –
LDAVQVLSGVSQLLPKSRENYLNR [FCHO1] | 3.13 ± 0.22 | 3.25 ± 0.18 | – | –
LDEPNAESDYTYSSSYEQFNGELP [SRPK2] | 4.78 ± 0.28 | 4.62 ± 0.19 | – | –
LDFSKKILHTAWHPSENIIAVAAT [PPP2R2B] | 2.05 ± 0.2 | 2.3 ± 0.039 | – | –

Sequence | protein stability index [1] | protein stability index [2] | protein stability index [3] | protein stability index [4]
LDPSFPVEFVRHGDIIRLEHKETS [POMT2] | 5.71 ± 0.17 | 5.59 ± 0.25 | – | –
LDVEAAHSEILKYFQSVTSNRWLM [STX5] | 2.06 ± 0.29 | 1.95 ± 0.055 | – | –
LEEGDELQLAIPRENAQISLDGDV [TNFSF13B] | 5.43 ± 0.083 | 5.29 ± 0.12 | – | –
LEQDLQQVMVSGPNLNETSIVSGG [ARFIP2] | 5.03 ± 0.26 | 4.99 ± 0.12 | – | –
LEWNSLGTWDDAFATFCGGLAANG [LRRC45] | 2.52 ± 0.3 | 2.58 ± 0.31 | – | –
LFDNPKLDKELRAMLREKFPEFCS [INTS3] | 2.03 ± 0.32 | 2.54 ± 0.31 | – | –
LFNLSNFLDKSGSHGYDMSTFIRR [SNAP91] | 2.62 ± 0.62 | 2.25 ± 0.35 | – | –
LFPASPTREAHRESSVPVTPSVPP [FBF1] | 4.88 ± 0.19 | 4.84 ± 0.11 | – | –
LFPNAKKEHVPTWLQNTHVYSWPK [TRAF3IP2] | 2.8 ± 0.33 | 2.81 ± 0.19 | – | –
LFSDPRSTRLTRIHLREDLVQDQD [ZER1] | 4.53 ± 0.24 | 4.55 ± 0.09 | – | –
LFSLMVVNRLTEELGCDEIIDRE [EID1] | – | – | 3 ± 1.1 | 2.37 ± 0.48
LGKILSVELGKQKKKYMPYNHQHK [FADS1] | 2.55 ± 0.12 | 2.69 ± 0.23 | – | –
LGLETLKITDFQLHASTVKRYGLG [CPXM2] | 2.61 ± 0.52 | 2.46 ± 0.12 | – | –
LGLLFERHWHRPVLMAVSVHSERK [SCNN1D] | 2.21 ± 0.23 | 2.33 ± 0.24 | – | –
LGRSLTAVFMWPGKDSRWLPSLVL [SLC29A1] | 2.98 ± 0.22 | 2.83 ± 0.47 | – | –
LGVRRPGGAGKEGVRVNNRFELIN [TCF25] | 3.05 ± 0.39 | 3.12 ± 0.43 | – | –
LHAAAAGGNVECIKLLQSSGADFH [ANKRD44] | 3.37 ± 0.091 | 3.46 ± 0.22 | – | –
LHPDRDPGNPSLHSRFVELSEAYR [DNAJC4] | 3.37 ± 0.22 | 3.51 ± 0.19 | – | –
LHSKEIVYRDLKPENILLDRDGHI [PRKX] | 3.7 ± 0.15 | 3.75 ± 0.097 | – | –
LHTANLGDSGFLVVRGGEVVHRSD [PPTC7] | 3.62 ± 0.11 | 3.76 ± 0.14 | – | –
LIQFLEQVHQGIKGMVLDENYNNL [CPN1] | 2.62 ± 0.065 | 3.07 ± 0.61 | – | –
